From the supplement of paper PMC9233669
This sample holds only a part of the variants without activity.

Experiments:
biotinyl-Phe-oxazolone = assay: self-aminoacylation, catalytic enhancement (BFO) (fold over background); higher = more active; k-Seq, kA / k0A0; sequences stand for … in GGGAAUGGAUCCACAUCUACGAAUUC…UUCACUGCAGACUUGACGAAGCUG
Outline: (§1)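 Mutagenized RNA pools with a 21-nt variable region (0.43 μM) reacted with each biotinyl-aminoacyl-oxazolone at 2–1250 μM. Reactions ran in 50 μL HEPES/NaCl/KCl/MgCl2/CaCl2 buffer with 5% acetonitrile, pH 6.9–7.0, for 90 minutes at room temperature. Streptavidin-captured RNA was quantified by triplicate qPCR and Illumina sequencing, and per-sequence fraction reacted was fit to a pseudo-first-order model with 1000 bootstraps. Catalytic enhancement is median kA divided by the uncatalyzed rate, the low-activity peak of a bimodal Gaussian fit.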

biotinyl-Trp-oxazolone = assay: self-aminoacylation, catalytic enhancement (BWO) (fold over background); higher = more active; k-Seq, kA / k0A0; sequences stand for … in GGGAAUGGAUCCACAUCUACGAAUUC…UUCACUGCAGACUUGACGAAGCUG
Outline: as §1

biotinyl-Met-oxazolone = assay: self-aminoacylation, catalytic enhancement (BMO) (fold over background); higher = more active; k-Seq, kA / k0A0; sequences stand for … in GGGAAUGGAUCCACAUCUACGAAUUC…UUCACUGCAGACUUGACGAAGCUG
Outline: as §1

biotinyl-Leu-oxazolone = assay: self-aminoacylation, catalytic enhancement (BLO) (fold over background); higher = more active; k-Seq, kA / k0A0; sequences stand for … in GGGAAUGGAUCCACAUCUACGAAUUC…UUCACUGCAGACUUGACGAAGCUG
Outline: as §1

biotinyl-Val-oxazolone = assay: self-aminoacylation, catalytic enhancement (BVO) (fold over background); higher = more active; k-Seq, kA / k0A0; sequences stand for … in GGGAAUGGAUCCACAUCUACGAAUUC…UUCACUGCAGACUUGACGAAGCUG
Outline: as §1

biotinyl-Ile-oxazolone = assay: self-aminoacylation, catalytic enhancement (BIO) (fold over background); higher = more active; k-Seq, kA / k0A0; sequences stand for … in GGGAAUGGAUCCACAUCUACGAAUUC…UUCACUGCAGACUUGACGAAGCUG
Outline: as §1

Row | Sequence | self-aminoacylation (biotinyl-Phe-oxazolone) | self-aminoacylation (biotinyl-Trp-oxazolone) | self-aminoacylation (biotinyl-Met-oxazolone) | self-aminoacylation (biotinyl-Leu-oxazolone) | self-aminoacylation (biotinyl-Val-oxazolone) | self-aminoacylation (biotinyl-Ile-oxazolone)
1 | GUUCACCUAGGUCAUCGGGUU [Fam2.2 aminoacylation ribozyme variant] | 51.7 | 9.2 | 13.5 | 17.9 | 6.82 | 7.61
2 | GUUCACCUAGGUCAUGGGGUG [Fam2.2 aminoacylation ribozyme variant] | 10.3 | 4.06 | 3.63 | 4.4 | 3.01 | 2.64
3 | GUUCACCUUGGUCAUCGGGUG [Fam2.2 aminoacylation ribozyme variant] | 37.7 | 5.93 | 5.14 | 5.74 | 4.34 | 3.45
4 | GUUCCCCUAGGUCAUCGGGUG [Fam2.2 aminoacylation ribozyme variant] | 94.8 | 12.1 | 13.3 | 14.2 | 8.06 | 7.72
5 | GUUGCCCUGGUCAUCGAGUGA [Fam2.1 aminoacylation ribozyme variant] | 382 | 58.8 | 54.2 | 57.5 | 23.4 | 19.1
6 | UACUUUGCUAAUAGUCGCAAG [Fam3.1 aminoacylation ribozyme variant] | 2.71 | 1.46 | 1.66 | 1.86 | 1.33 | 1.75
7 | UAGUUUGCGAAUAGUCGCAAG [Fam3.1 aminoacylation ribozyme variant] | 2.28 | 1.73 | 1.68 | 1.75 | 1.1 | 1.82
8 | UAGUUUGCUAAUAGUCGCAGG [Fam3.1 aminoacylation ribozyme variant] | 2.23 | 2.22 | 1.2 | 1.31 | 1.34 | 1.72
9 | UAUACCCUGGUCAUCGAGUGA [Fam2.1 aminoacylation ribozyme variant] | 25.2 | 16 | 14.8 | 15.5 | 7.52 | 7.17
10 | UCACACUUCAAGCAAUCCGUC [Fam1B.1 aminoacylation ribozyme variant] | 1.15 | 1.01 | 0.667 | 0.591 | 1.25 | 0.955
11 | UCACACUUCAAGCAAUCGCUC [Fam1B.1 aminoacylation ribozyme variant] | 1.94 | 1.45 | 1.46 | 1.3 | 1.32 | 1.43
12 | UCACACUUCAAGCAAUCGGUG [Fam1B.1 aminoacylation ribozyme variant] | 29 | 6.38 | 5.17 | 7.95 | 3.95 | 3.81
13 | UCACACUUCAAGCACUCGGUC [Fam1B.1 aminoacylation ribozyme variant] | 0.873 | 0.771 | 0.873 | 0.927 | 1.32 | 0.94
14 | UCACACUUCAAGCAGUCGGUC [Fam1B.1 aminoacylation ribozyme variant] | 1.06 | 0.901 | 0.968 | 0.879 | 0.972 | 0.827
15 | UCACACUUCAAGCUAUCGGUC [Fam1B.1 aminoacylation ribozyme variant] | 1.11 | 0.724 | 0.703 | 0.749 | 1.02 | 0.939
16 | UCACAUUUCAAGCAAUCGGUC [Fam1B.1 aminoacylation ribozyme variant] | 2.47 | 1.56 | 0.73 | 0.847 | 1.07 | 1.04
17 | UCGCACUUCAAGCAAUCGGUC [Fam1B.1 aminoacylation ribozyme variant] | 55.1 | 29.8 | 1.44 | 2.14 | 1.61 | 1.38
18 | UUACACCUAGGUCAUCGGGUG [Fam2.2 aminoacylation ribozyme variant] | 10.5 | 3 | 1.92 | 1.87 | 2.15 | 2.25
19 | UUACUUCAAACAAUCGGCCUG [Fam1A.1 aminoacylation ribozyme variant] | 95.3 | 43.2 | 2.35 | 4.03 | 2.3 | 2.69
20 | UUACUUCAAACAAUCGGUCCG [Fam1A.1 aminoacylation ribozyme variant] | 1.69 | 1.64 | 0.942 | 0.937 | 0.891 | 0.82
21 | UUACUUCAAACAAUCGGUGUG [Fam1A.1 aminoacylation ribozyme variant] | 7.15 | 5.33 | 1.97 | 2.36 | 1.46 | 1.51

Row | Sequence | self-aminoacylation (biotinyl-Phe-oxazolone) | self-aminoacylation (biotinyl-Trp-oxazolone) | self-aminoacylation (biotinyl-Met-oxazolone) | self-aminoacylation (biotinyl-Leu-oxazolone) | self-aminoacylation (biotinyl-Val-oxazolone) | self-aminoacylation (biotinyl-Ile-oxazolone)
22 | UUACUUCAAACAAUUGGUCUG [Fam1A.1 aminoacylation ribozyme variant] | 1.76 | 1.61 | 1.2 | 1.14 | 1.12 | 1.43
23 | UUCACCCUGGUCAUCGAGUGA [Fam2.1 aminoacylation ribozyme variant] | 13.2 | 12.7 | 11.3 | 10.6 | 6.29 | 5.88
24 | UUGCACCUAGGUCAUCGGGUG [Fam2.2 aminoacylation ribozyme variant] | 38.8 | 5.53 | 3.89 | 4.63 | 3.66 | 3.11
25 | UUUAACCUAGGUCAUCGGGUG [Fam2.2 aminoacylation ribozyme variant] | 36.3 | 7.19 | 5.87 | 7.42 | 4.48 | 5.19
26 | UUUAACCUGGUCAUCGAGUGA [Fam2.1 aminoacylation ribozyme variant] | 11.2 | 8.93 | 5.83 | 5.8 | 4.17 | 4.01
27 | UUUACCCAGGUCAUCGAGUGA [Fam2.1 aminoacylation ribozyme variant] | 21.9 | 6 | 5.36 | 5.06 | 3.55 | 3.49
28 | UUUACCCCGGUCAUCGAGUGA [Fam2.1 aminoacylation ribozyme variant] | 35.5 | 6.13 | 6.14 | 6.37 | 3.64 | 3.31
29 | UUUACCCUGGGCAUCGAGUGA [Fam2.1 aminoacylation ribozyme variant] | 10.4 | 5.06 | 4.18 | 4.84 | 2.83 | 2.3
30 | UUUACCCUGGUAAUCGAGUGA [Fam2.1 aminoacylation ribozyme variant] | 58.7 | 10.4 | 9.02 | 8.58 | 3.97 | 4.2
31 | UUUACCCUGGUCAUCAAGUGA [Fam2.1 aminoacylation ribozyme variant] | 3.22 | 3.07 | 2.24 | 1.85 | 1.63 | 1.25
32 | UUUACCCUGGUCAUCGAGUGG [Fam2.1 aminoacylation ribozyme variant] | 154 | 29.3 | 31.5 | 27.3 | 9.95 | 8.85
33 | UUUACCCUGGUCAUCGAGUUA [Fam2.1 aminoacylation ribozyme variant] | 16.7 | 6.24 | 7.29 | 6.2 | 3.5 | 3.03
34 | UUUACCCUGGUCAUUGAGUGA [Fam2.1 aminoacylation ribozyme variant] | 38.1 | 10.1 | 7.86 | 7.06 | 3.91 | 3.76
35 | UUUACCCUGGUUAUCGAGUGA [Fam2.1 aminoacylation ribozyme variant] | 25.7 | 10.6 | 7.81 | 7.57 | 4.19 | 4.28
36 | UUUACCCUGUUCAUCGAGUGA [Fam2.1 aminoacylation ribozyme variant] | 5.37 | 5.71 | 4.11 | 3.91 | 2.56 | 2.21
37 | UUUACCCUUGUCAUCGAGUGA [Fam2.1 aminoacylation ribozyme variant] | 19.9 | 7.94 | 6.04 | 6.18 | 3.38 | 3.37
38 | UUUACCGUGGUCAUCGAGUGA [Fam2.1 aminoacylation ribozyme variant] | 17.7 | 7.07 | 5.63 | 5.18 | 3.63 | 3.2
39 | UUUCACCUAGGACAUCGGGUG [Fam2.2 aminoacylation ribozyme variant] | 26.8 | 4.64 | 3.39 | 3.31 | 3.19 | 3
40 | UUUCACCUAGUUCAUCGGGUG [Fam2.2 aminoacylation ribozyme variant] | 18.6 | 3.92 | 2.6 | 2.99 | 3.09 | 2.44
41 | UUUCGCCUAGGUCAUCGGGUG [Fam2.2 aminoacylation ribozyme variant] | 44.1 | 7.75 | 6.25 | 7.49 | 5.33 | 5.36
42 | UUUGACCUAGGUCAUCGGGUG [Fam2.2 aminoacylation ribozyme variant] | 26.6 | 6.51 | 4.5 | 5.93 | 4.23 | 4.3
